Measurements reported in the supplement of paper PMC10567573.

B1: C10orf62 (parent)
chain: GHSHHSHHGHPSHQSHSLPNRRH
B2: RTP4 (parent)
chain: AFGWFRCSSCQRSWASAQVQILCH

Variants of: B1
Assay: protein stability index of a GFP-peptide fusion (GPS, HEK-293T) (PSI 1-6); higher = more stable
Details: c terminus: native
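Note: lentivirally expressed fusions sorted by FACS into six bins by GFP to DsRed ratio, PSI derived from sequencing read proportions per bin multiplied by bin number.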

Protein stability index, by site and new letter:
G1: R 3.44, L 3.98, K 2.79, Y 2.42, W 3.55, M 2.19, N 2.38, E 2.45, Q 4.66, F 3.19
Q14: F 2.56, K 2.75, I 2.95, S 2.26, N 2.92, H 3.42, E 2, M 4.32, W 3.44, P 2.67, T 3.78, V 2.08, R 3.61, G 2.82, Y 1.85
S17: E 2.14, R 4.84, T 4.17, Y 4.98, P 4.04, M 3.01, F 1.8, C 2.65, Q 2.82, I 2.64, G 3.77, A 2.08, D 2.43, V 1.69
S3: L 1.31, R 3.09, Q 2.63, Y 3.14, C 3.13, A 3.05, H 2.27, N 2.89, W 2.33, D 2.29
R22: S 3.94, D 3.39, F 2.84, Q 2.69, M 3, E 2, G 2.15, T 3.14, W 2.86, K 4, H 4.93, Y 2.11, L 1.29, A 3.28
S15: H 2.48, P 3.1, T 2.91, Y 2.6, Q 2.95, E 3.39, M 2.74, F 2.19, V 3.59, D 2.07, A 3.68, N 3.44, G 3.98, R 3.2, W 2.92
S12: Q 1.6, I 4.18, T 2.57, R 4.62, M 2.27, L 2.34, W 3.49, A 2.22, P 3.31, G 2.75, D 2.98
H4: Y 2.93, Q 2.37, P 3.51, D 2.31, V 2.93, C 2.69, E 2.76, G 3.39, N 4.06, K 2.15
H13: S 2.65, E 2.68, Q 2.12, W 2.6, L 3.34, K 2.51, A 3.6, P 2.47, F 3.57, Y 3.26, R 2.55, C 3.33, D 2.86
L18: K 1.51, N 2.88, M 2.16, T 2.27, V 2.52, I 3.49, G 2.38, Q 3.76, A 3.18, P 2.11, R 4.23, Y 2.08, F 3.24, C 2.94, H 4.06, W 3.46
H7: N 2.44, D 3.05, W 2.41, L 3.37, S 3.47, R 3.22, A 2.72, P 4.21, T 2.66, E 2.1, G 1.83, K 2.14, C 2.65, M 1.87

Variants of: B2
Assay: as above
Details: c terminus: a fixed tail appended

Protein stability index of substitutions, site by site:
C23: H 1.84, P 2.83, R 1.49, I 4.29, M 3.79, T 1.93, E 2.8, F 2.59, S 1.8, K 2.35, L 2.78, Q 3.85, N 2.21, Y 2.81
H24: V 4.55, P 3.58, N 3.06, R 3.52, A 1.84, Y 3.39, K 1.83, D 1.97, W 1.61, F 3.12, I 3.64
